In patent publication US8242078B2, “Therapeutics to inhibit MLL-menin interaction for treating leukemia” (The University of Chicago, priority 2006, dated 2012):
“Also recorded” adds a separate entry of the source. Peptide text beside a SMILES is read from it.

Legend:
[1] = target: T1, interaction of transfected MLL with endogenous menin (Homo sapiens, UniProt O00255); assay: Disruption of binding of transfected FLAG-tagged MLL 1-330 to endogenous menin (anti-FLAG immunoprecipitation, anti-menin Western blot); conditions: for block of the interaction of transfected MLL with endogenous menin (Western blot, FIG. 1): lysates of 293 cells transfected with FLAG-tagged MLL 1-330, incubated with peptide, anti-FLAG IP, anti-menin blot; for inhibition of the binding of transfected MLL 1-330 to endogenous menin (Western blot, FIG. 2): each peptide tested at 10, 20, and 30 μM
T1 construct: endogenous in cells; host or cells: 293 cells (lysate; cells transfected with FLAG-MLL 1-330)
T1 sequence (O00255 1-610): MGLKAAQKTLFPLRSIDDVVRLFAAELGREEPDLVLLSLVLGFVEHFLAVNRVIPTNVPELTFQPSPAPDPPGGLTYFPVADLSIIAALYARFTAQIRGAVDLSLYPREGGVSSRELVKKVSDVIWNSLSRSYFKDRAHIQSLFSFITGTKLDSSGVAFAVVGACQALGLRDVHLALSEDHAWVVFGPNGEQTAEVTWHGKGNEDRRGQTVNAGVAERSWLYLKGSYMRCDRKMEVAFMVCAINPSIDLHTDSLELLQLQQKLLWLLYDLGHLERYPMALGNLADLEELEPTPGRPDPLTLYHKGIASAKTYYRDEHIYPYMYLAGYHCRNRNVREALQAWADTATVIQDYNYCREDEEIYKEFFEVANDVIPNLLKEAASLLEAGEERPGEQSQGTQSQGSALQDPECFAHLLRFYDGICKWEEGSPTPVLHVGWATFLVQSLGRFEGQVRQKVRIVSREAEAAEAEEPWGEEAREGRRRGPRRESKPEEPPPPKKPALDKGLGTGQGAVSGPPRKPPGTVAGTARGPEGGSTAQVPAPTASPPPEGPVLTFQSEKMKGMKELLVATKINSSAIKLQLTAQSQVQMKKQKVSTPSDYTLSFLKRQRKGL
Method: To determine the precise domain that mediates the binding of MLL to menin, a series of peptides from the N-terminus of MLL were synthesized. To assess disruption of binding of transfected MLL to endogenous menin, a FLAG-tagged MLL 1-330 construct was transfected into 293 cells and the cell lysates were incubated with a series of peptides listed below or with water as a control. Cell lysates were immunoprecipitated with anti-FLAG antibody (Sigma), separated by SDS-PAGE and blotted with an anti-menin antibody (Bethyl Laboratories Inc, or Santa-Cruz). The amino acid numbers from the N-terminus of MLL are indicated below (preceding the amino acid sequence) for the peptides analyzed for their ability to disrupt the interaction of MLL and menin.
Conditional inactivation of menin results in the reversal of the transforming properties of MLL fusion proteins. A high affinity menin binding domain has been localized to the N-terminal residues of MLL, and deletion of residues 6 through 10 of MLL prevents MLL-ELL from transforming hematopoietic progenitor cells. To target the MLL-menin interaction, a series of peptides were developed for the potential to block the interaction of menin with MLL. To establish the activity of these peptides, lysates of cells transfected with FLAG-tagged N-terminal MLL sequences were examined. The lysates were immunoprecipitated with a FLAG antibody, incubated with either an MLL peptide or a control scrambled peptide, and then blotted with an anti-menin antibody. […] To examine the activity of the TAT-MLL peptide, mouse and human leukemia cell lines were treated with the TAT-MLL peptide. […] (#TIB-202, American Type Culture Collection, Manassas, Va.).

normal human CD34+ cells [2] = assay: Erythroid differentiation of normal human CD34+ cells, day 10; type: cell-based; conditions: 7.5 μm or 10 μm
Method: (§1) To assess the effects of TAT-MLL peptide on hematopoiesis, normal human CD34^+ cells were incubated with either the TAT-MLL peptide or the TAT-scrambled peptide at a concentration of either 7.5 μm or 10 μm. There was no effect of either the TAT-MLL peptide or the TAT-scrambled peptide on myeloid or erythroid differentiation. […] CD14-PE, CD15-FITC, CD71-FITC and GlyA (CD235a)-PE antibodies were obtained from Becton Dickinson

normal human CD34+ cells [3] = assay: Myeloid differentiation of normal human CD34+ cells, day 10; type: cell-based; conditions: 7.5 μm or 10 μm
Method: as §1

| Molecule | block of the interaction of transfected MLL with endogenous menin (Western blot, FIG. 1) [1] | also measured |
| --- | --- | --- |
| MAHSCRWRFPARPGTTGGGGGGGRRGLGGG (SEQ ID NO: 6) [MLL peptide 1-30, peptide from the N-terminus of MLL, amino acids 1-30] | block the interaction of transfected MLL with endogenous menin | – |
| HSCRWRFPARPGTTGG (SEQ ID NO: 8) [MLL peptide 3-18, peptide from the N-terminus of MLL, amino acids 3-18] | block the interaction of transfected MLL with endogenous menin | – |
| MAHSCRWRFPARPGTTGG (SEQ ID NO: 3) [MLL peptide 1-18, peptide from the N-terminus of MLL, amino acids 1-18] | block the interaction of transfected MLL with endogenous menin | – |
| MAHSCRWRFPARPGTTGGGGGGGRRG (SEQ ID NO: 5) [MLL peptide 1-26, peptide from the N-terminus of MLL, amino acids 1-26] | block the interaction of transfected MLL with endogenous menin | – |
| SCRWRFPARPG (SEQ ID NO: 13) [MLL peptide 4-14, peptide from the N-terminus of MLL, amino acids 4-14] | block the interaction of transfected MLL with endogenous menin | – |
| MAHSCRWRFP (SEQ ID NO: 19) [MLL peptide 1-10, peptide from the N-terminus of MLL, amino acids 1-10] | do not block the interaction of MLL with menin | – |
| RWRFPARPG (SEQ ID NO: 25) [MLL peptide 6-14, peptide from the N-terminus of MLL, amino acids 6-14] | do not block the interaction of MLL with menin | – |
| MAHSCRWRFPARPG (SEQ ID NO: 2) [MLL peptide 1-14, peptide from the N-terminus of MLL, amino acids 1-14] | block the interaction of transfected MLL with endogenous menin | – |
| MAHSCRWRFPAR (SEQ ID NO: 21) [MLL peptide 1-12, peptide from the N-terminus of MLL, amino acids 1-12] | do not block the interaction of MLL with menin | – |
| CRWRFPARPGTTGG (SEQ ID NO: 10) [MLL peptide 5-18, peptide from the N-terminus of MLL, amino acids 5-18] | block the interaction of transfected MLL with endogenous menin | – |
| SCRWRFPARPGTTGG (SEQ ID NO: 9) [MLL peptide 4-18, peptide from the N-terminus of MLL, amino acids 4-18] | block the interaction of transfected MLL with endogenous menin | – |
| RFPARPGTTGG (SEQ ID NO: 24) [MLL peptide 8-18, peptide from the N-terminus of MLL, amino acids 8-18] | do not block the interaction of MLL with menin | – |
| CRWRFPARPG (SEQ ID NO: 14) [MLL peptide 5-14] | block the interaction of transfected MLL with endogenous menin; also recorded: sufficient to block interaction with endogenous menin | inhibition of the binding of transfected MLL 1-330 to endogenous menin (Western blot, FIG. 2) [1]: dose-dependent inhibition |
| MAHSCRWRFPA (SEQ ID NO: 20) [MLL peptide 1-11, peptide from the N-terminus of MLL, amino acids 1-11] | do not block the interaction of MLL with menin | – |
| AHSCRWRFPARPG (SEQ ID NO: 11) [MLL peptide 2-14, peptide from the N-terminus of MLL, amino acids 2-14] | block the interaction of transfected MLL with endogenous menin | – |
| RKKRRQRRR-GG-MAHSCRWRFPARPGTTGG (SEQ ID NO: 17) (RKKRRQRRRGGMAHSCRWRFPARPGTTGG) [TAT-MLL 1-18, longer MLL peptide, residues 1-18, fused to TAT] | – | inhibition of the binding of transfected MLL 1-330 to endogenous menin (Western blot, FIG. 2) [1]: dose-dependent inhibition |
| MAHSCRWRFPARPGTTGGGGGG (SEQ ID NO: 4) [MLL peptide 1-22, peptide from the N-terminus of MLL, amino acids 1-22] | block the interaction of transfected MLL with endogenous menin | – |
| MAHSCRWRFPARP (SEQ ID NO: 1) [MLL peptide 1-13, peptide from the N-terminus of MLL, amino acids 1-13] | block the interaction of transfected MLL with endogenous menin | – |
| AHSCRWRFPARPGTTGG (SEQ ID NO: 7) [MLL peptide 2-18, peptide from the N-terminus of MLL, amino acids 2-18] | block the interaction of transfected MLL with endogenous menin | – |
| C[C@H](NC(=O)[C@H](CCCNC(=N)N)NC(=O)CNC(=O)CNC(=O)[C@H](CCCNC(=N)N)NC(=O)[C@H](CCCNC(=N)N)NC(=O)[C@H](CCCNC(=N)N)NC(=O)[C@H](CCC(N)=O)NC(=O)[C@H](CCCNC(=N)N)NC(=O)[C@H](CCCNC(=N)N)NC(=O)[C@H](CCCCN)NC(=O)[C@H](CCCCN)NC(=O)[C@@H](N)CCCNC(=N)N)C(=O)N[C@@H](Cc1ccccc1)C(=O)N[C@@H](CCCNC(=N)N)C(=O)N1CCC[C@H]1C(=O)N[C@@H](CS)C(=O)N1CCC[C@H]1C(=O)N[C@@H](CCCNC(=N)N)C(=O)N[C@@H](Cc1c[nH]c2ccccc12)C(=O)NCC(=O)O [TAT-scrambled, RKKRRQRRR-GG-RAFRPCPRWG (SEQ ID NO: 18), reference compound] (H-RKKRRQRRRGGRAFRPCPRWG-OH) | – | effect on erythroid differentiation (in words) (normal human CD34+ cells [2]): no effect; effect on myeloid differentiation (in words) (normal human CD34+ cells [3]): no effect |
| RWRFPARPGTTGG (SEQ ID NO: 22) [MLL peptide 6-18, peptide from the N-terminus of MLL, amino acids 6-18] | do not block the interaction of MLL with menin | – |
| WRFPARPGTTGG (SEQ ID NO: 23) [MLL peptide 7-18, peptide from the N-terminus of MLL, amino acids 7-18] | do not block the interaction of MLL with menin | – |
| C[C@H](NC(=O)[C@@H]1CCCN1C(=O)[C@H](Cc1ccccc1)NC(=O)[C@H](CCCNC(=N)N)NC(=O)[C@H](Cc1c[nH]c2ccccc12)NC(=O)[C@H](CCCNC(=N)N)NC(=O)[C@H](CS)NC(=O)CNC(=O)CNC(=O)[C@H](CCCNC(=N)N)NC(=O)[C@H](CCCNC(=N)N)NC(=O)[C@H](CCCNC(=N)N)NC(=O)[C@H](CCC(N)=O)NC(=O)[C@H](CCCNC(=N)N)NC(=O)[C@H](CCCNC(=N)N)NC(=O)[C@H](CCCCN)NC(=O)[C@H](CCCCN)NC(=O)[C@@H](N)CCCNC(=N)N)C(=O)N[C@@H](CCCNC(=N)N)C(=O)N1CCC[C@H]1C(=O)NCC(=O)O [TAT-MLL, RKKRRQRRR-GG-CRWRFPARPG (SEQ ID NO: 15)] (H-RKKRRQRRRGGCRWRFPARPG-OH) | – | effect on erythroid differentiation (in words) (normal human CD34+ cells [2]): no effect; effect on myeloid differentiation (in words) (normal human CD34+ cells [3]): no effect |
| HSCRWRFPARPG (SEQ ID NO: 12) [MLL peptide 3-14, peptide from the N-terminus of MLL, amino acids 3-14] | block the interaction of transfected MLL with endogenous menin | – |
